From the RNAGym collection of RNA variant scans (doi:10.1093/molbev/msab373)

B1: Azoarcus group I ribozyme (parent)
chain: GUGCCUUGCGCCGGGAAACCACGCAAGGGAUGGUGUCAAAUUCGGCGAAACCUAAGCGCCCGCCCGGGCGUAUGGCAACGCCGAGCCAAGCUUCGGCGCCUGCGCCGAUGAAGGUGUAGAGACUAGACGGCACCCACCUAAGGCAAACGCUAUGGUGAAGGCAUAGUCCAGGGAGUGGCGAAAGUCACACAAACCGG

Variants of: B1
Test: reverse-splicing fitness (ratio to wild type); higher = more active; in vitro selection; Mg2+ level not given
Method in brief: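 An in vitro group I ribozyme library with randomized positions was T7-transcribed and gel-purified. In triplicate, 10 pmol RNA in EPPS pH 7.5 was reacted with 50 pmoles of a 30-nt RNA substrate for 1 h at 37 °C across several added MgCl2 levels (1–48 mM), then stopped with EDTA. Products were reverse transcribed from a substrate-complementary primer, PCR-amplified and sequenced (HiSeq 4000). Fitness is a variant's read proportion after selection over that before, normalised to wild type.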

| Variant | reverse-splicing fitness |
| --- | --- |
| C82U A111G A120U A145G C169A U176A | 0.00258 |
| C82U A111G A120U A145G C169A U176C | 0.00292 |
| C82U A111G A120U A145G C169A U176G | 0.00159 |
| C82U A111G A120U A145G C169G | 0.00348 |
| C82U A111G A120U A145G C169G U176A | 0.00278 |
| C82U A111G A120U A145G C169G U176C | 0.00294 |
| C82U A111G A120U A145G C169G U176G | 0.00169 |
| C82U A111G A120U A145G C169U | 0.00406 |
| C82U A111G A120U A145G C169U U176A | 0.00337 |
| C82U A111G A120U A145G C169U U176C | 0.00362 |
| C82U A111G A120U A145G C169U U176G | 0.00171 |
| C82U A111G A120U A145G U176A | 0.0106 |
| C82U A111G A120U A145G U176C | 0.0172 |
| C82U A111G A120U A145G U176G | 0.00369 |
| C82U A111G A120U A145U | 0.0429 |
| C82U A111G A120U A145U C150A | 0.00631 |
| C82U A111G A120U A145U C150A C169A | 0.00228 |
| C82U A111G A120U A145U C150A C169A U176A | 0.00277 |
| C82U A111G A120U A145U C150A C169A U176C | 0.00251 |
| C82U A111G A120U A145U C150A C169A U176G | 0.00195 |
| C82U A111G A120U A145U C150A C169G | 0.00226 |

| Variant | reverse-splicing fitness |
| --- | --- |
| C82U A111G A120U A145U C150A C169G U176A | 0.00245 |
| C82U A111G A120U A145U C150A C169G U176C | 0.00253 |
| C82U A111G A120U A145U C150A C169G U176G | 0.00148 |
| C82U A111G A120U A145U C150A C169U | 0.00292 |
| C82U A111G A120U A145U C150A C169U U176A | 0.00278 |
| C82U A111G A120U A145U C150A C169U U176C | 0.00216 |
| C82U A111G A120U A145U C150A C169U U176G | 0.00158 |
| C82U A111G A120U A145U C150A U176A | 0.00427 |
| C82U A111G A120U A145U C150A U176C | 0.00416 |
| C82U A111G A120U A145U C150A U176G | 0.00212 |
| C82U A111G A120U A145U C150G | 0.00775 |
| C82U A111G A120U A145U C150G C169A | 0.00272 |
| C82U A111G A120U A145U C150G C169A U176A | 0.00259 |
| C82U A111G A120U A145U C150G C169A U176C | 0.00216 |
| C82U A111G A120U A145U C150G C169A U176G | 0.00207 |
| C82U A111G A120U A145U C150G C169G | 0.00266 |
| C82U A111G A120U A145U C150G C169G U176A | 0.00235 |
| C82U A111G A120U A145U C150G C169G U176C | 0.00239 |
| C82U A111G A120U A145U C150G C169G U176G | 0.00175 |
| C82U A111G A120U A145U C150G C169U | 0.00235 |
| C82U A111G A120U A145U C150G C169U U176A | 0.00271 |

| Variant | reverse-splicing fitness |
| --- | --- |
| C82U A111G A120U A145U C150G C169U U176C | 0.00227 |
| C82U A111G A120U A145U C150G C169U U176G | 0.00213 |
| C82U A111G A120U A145U C150G U176A | 0.00344 |
| C82U A111G A120U A145U C150G U176C | 0.00492 |
| C82U A111G A120U A145U C150G U176G | 0.00254 |
| C82U A111G A120U A145U C150U | 0.0272 |
| C82U A111G A120U A145U C150U C169A | 0.00252 |
| C82U A111G A120U A145U C150U C169A U176A | 0.00289 |
| C82U A111G A120U A145U C150U C169A U176C | 0.0023 |
| C82U A111G A120U A145U C150U C169A U176G | 0.00165 |
| C82U A111G A120U A145U C150U C169G | 0.00305 |
| C82U A111G A120U A145U C150U C169G U176A | 0.0026 |
| C82U A111G A120U A145U C150U C169G U176C | 0.00294 |
| C82U A111G A120U A145U C150U C169G U176G | 0.00172 |
| C82U A111G A120U A145U C150U C169U | 0.00372 |
| C82U A111G A120U A145U C150U C169U U176A | 0.00262 |
| C82U A111G A120U A145U C150U C169U U176C | 0.00261 |
| C82U A111G A120U A145U C150U C169U U176G | 0.00192 |
| C82U A111G A120U A145U C150U U176A | 0.00763 |
| C82U A111G A120U A145U C150U U176C | 0.013 |
| C82U A111G A120U A145U C150U U176G | 0.00372 |

| Variant | reverse-splicing fitness |
| --- | --- |
| C82U A111G A120U A145U C169A | 0.00249 |
| C82U A111G A120U A145U C169A U176A | 0.00208 |
| C82U A111G A120U A145U C169A U176C | 0.0022 |
| C82U A111G A120U A145U C169A U176G | 0.00175 |
| C82U A111G A120U A145U C169G | 0.00313 |
| C82U A111G A120U A145U C169G U176A | 0.00205 |
| C82U A111G A120U A145U C169G U176C | 0.00255 |
| C82U A111G A120U A145U C169G U176G | 0.00135 |
| C82U A111G A120U A145U C169U | 0.00467 |
| C82U A111G A120U A145U C169U U176A | 0.00252 |
| C82U A111G A120U A145U C169U U176C | 0.00254 |
| C82U A111G A120U A145U C169U U176G | 0.0016 |
| C82U A111G A120U A145U U176A | 0.00945 |
| C82U A111G A120U A145U U176C | 0.0196 |
| C82U A111G A120U A145U U176G | 0.004 |
| C82U A111G A120U C150A | 0.00814 |
| C82U A111G A120U C150A C169A | 0.00324 |
| C82U A111G A120U C150A C169A U176A | 0.00374 |
| C82U A111G A120U C150A C169A U176C | 0.00313 |
| C82U A111G A120U C150A C169A U176G | 0.00269 |
